Data set [1] has as its target PRC2 core (EZH2-EED-SUZ12-RBBP4) (Homo sapiens, UniProt Q15910-2;O75530;Q15022;Q09028 1-751;1-441;1-739;1-425). The experiment in a line: fluorescence anisotropy; 50 mM Tris-HCl pH 7.5 (25 C), 100 mM KCl, 2 mM 2-mercaptoethanol, 0.1 mg/mL BSA, 0.05% NP-40; FA at 30 C; nucleosome EMSA with 5% glycerol at 4 C (+5 ng/uL salmon sperm DNA for H2A-Cy5 probes); PALI1 PIR EMSA with 5% glycerol, binding at 30 C; probe 5 nM. Conditions: protein: recombinant; tags: His6-MBP (PreScission-cleavable); copies: 1;1;1;1; label: 3'-fluorescein; G4.

Another data set deals with PRC2-PALI1 PIR (Homo sapiens, UniProt Q15910-2;O75530;Q15022;Q09028;Q96JN0-3 1-751;1-441;1-739;1-425;1058-1250). Described as above. Conditions: protein: recombinant, tags: His6-MBP (PreScission-cleavable), copies: 1;1;1;1;1, label: 3'-fluorescein; for Kd: hairpin, 46 bp stem.
Chain of PRC2-PALI1 PIR (Q15910 other isoform, or with tags, fused parts or gaps, chain 1 of 4): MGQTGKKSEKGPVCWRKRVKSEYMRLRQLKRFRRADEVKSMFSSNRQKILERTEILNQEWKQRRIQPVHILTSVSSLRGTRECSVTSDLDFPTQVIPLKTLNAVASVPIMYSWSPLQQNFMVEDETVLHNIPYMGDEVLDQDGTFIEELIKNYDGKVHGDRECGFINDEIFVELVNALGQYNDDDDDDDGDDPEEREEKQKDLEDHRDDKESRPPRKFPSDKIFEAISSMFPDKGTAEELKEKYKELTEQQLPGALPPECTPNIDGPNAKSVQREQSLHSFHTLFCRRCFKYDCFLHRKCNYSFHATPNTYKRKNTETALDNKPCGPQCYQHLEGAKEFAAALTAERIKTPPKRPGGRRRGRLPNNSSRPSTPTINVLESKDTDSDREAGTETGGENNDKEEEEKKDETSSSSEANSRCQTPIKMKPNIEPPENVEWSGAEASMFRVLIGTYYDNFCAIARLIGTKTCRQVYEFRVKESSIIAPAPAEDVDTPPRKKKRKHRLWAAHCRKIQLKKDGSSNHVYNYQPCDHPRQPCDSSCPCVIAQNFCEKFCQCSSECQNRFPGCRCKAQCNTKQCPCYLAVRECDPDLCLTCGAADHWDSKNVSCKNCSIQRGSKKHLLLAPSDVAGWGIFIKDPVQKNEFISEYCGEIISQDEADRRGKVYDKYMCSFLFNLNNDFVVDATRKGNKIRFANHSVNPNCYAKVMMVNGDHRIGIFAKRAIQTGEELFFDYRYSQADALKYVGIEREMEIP
Chain of PRC2-PALI1 PIR (O75530 whole entry, chain 2 of 4): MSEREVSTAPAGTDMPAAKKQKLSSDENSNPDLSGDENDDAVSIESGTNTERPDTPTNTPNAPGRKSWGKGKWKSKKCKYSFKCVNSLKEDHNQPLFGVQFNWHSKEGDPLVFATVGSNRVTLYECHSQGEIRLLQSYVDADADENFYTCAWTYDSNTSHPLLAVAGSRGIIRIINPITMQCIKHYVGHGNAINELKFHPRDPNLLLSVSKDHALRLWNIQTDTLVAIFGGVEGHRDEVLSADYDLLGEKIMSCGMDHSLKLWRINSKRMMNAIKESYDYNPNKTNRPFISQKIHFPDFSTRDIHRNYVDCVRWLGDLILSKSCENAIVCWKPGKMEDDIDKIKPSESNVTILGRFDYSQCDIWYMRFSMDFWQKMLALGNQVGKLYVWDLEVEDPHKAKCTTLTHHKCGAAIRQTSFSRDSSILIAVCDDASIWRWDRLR
Chain of PRC2-PALI1 PIR (Q15022 whole entry, chain 3 of 4): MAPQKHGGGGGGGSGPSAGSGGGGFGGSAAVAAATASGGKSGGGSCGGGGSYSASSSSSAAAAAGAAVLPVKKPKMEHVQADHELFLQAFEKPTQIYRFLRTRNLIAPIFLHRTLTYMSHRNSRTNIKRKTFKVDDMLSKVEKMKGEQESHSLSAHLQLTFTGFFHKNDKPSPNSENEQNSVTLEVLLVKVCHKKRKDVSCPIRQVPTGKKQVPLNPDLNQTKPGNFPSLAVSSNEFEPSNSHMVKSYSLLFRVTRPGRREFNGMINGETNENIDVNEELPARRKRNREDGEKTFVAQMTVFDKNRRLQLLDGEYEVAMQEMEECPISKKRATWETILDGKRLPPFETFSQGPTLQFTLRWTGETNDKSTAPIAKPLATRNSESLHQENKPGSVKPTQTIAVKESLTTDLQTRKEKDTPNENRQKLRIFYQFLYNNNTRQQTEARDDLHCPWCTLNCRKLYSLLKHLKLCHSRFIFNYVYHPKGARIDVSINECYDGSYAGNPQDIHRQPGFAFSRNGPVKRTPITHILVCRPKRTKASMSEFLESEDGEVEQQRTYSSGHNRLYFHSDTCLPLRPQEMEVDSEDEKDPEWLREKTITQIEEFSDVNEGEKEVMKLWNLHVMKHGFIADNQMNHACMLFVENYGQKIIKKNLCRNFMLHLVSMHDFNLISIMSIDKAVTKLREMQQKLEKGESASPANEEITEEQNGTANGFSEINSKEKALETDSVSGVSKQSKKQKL
Chain of PRC2-PALI1 PIR (Q09028 whole entry, chain 4 of 4): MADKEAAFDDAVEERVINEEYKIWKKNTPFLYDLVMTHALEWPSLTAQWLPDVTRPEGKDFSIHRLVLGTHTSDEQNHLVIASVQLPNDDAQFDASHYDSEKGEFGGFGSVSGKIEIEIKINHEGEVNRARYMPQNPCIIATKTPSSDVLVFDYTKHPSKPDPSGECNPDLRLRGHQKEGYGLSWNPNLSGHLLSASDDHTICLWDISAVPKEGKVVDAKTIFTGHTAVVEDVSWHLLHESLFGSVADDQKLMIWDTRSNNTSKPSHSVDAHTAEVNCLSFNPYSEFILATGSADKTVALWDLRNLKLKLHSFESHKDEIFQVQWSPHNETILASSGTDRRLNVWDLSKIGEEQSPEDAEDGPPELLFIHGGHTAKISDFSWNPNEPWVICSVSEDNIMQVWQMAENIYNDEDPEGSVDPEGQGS
For a further data set, the target named is T1, PALI1 PIR (Homo sapiens, UniProt Q96JN0-3 1058-1250).
T1 sequence: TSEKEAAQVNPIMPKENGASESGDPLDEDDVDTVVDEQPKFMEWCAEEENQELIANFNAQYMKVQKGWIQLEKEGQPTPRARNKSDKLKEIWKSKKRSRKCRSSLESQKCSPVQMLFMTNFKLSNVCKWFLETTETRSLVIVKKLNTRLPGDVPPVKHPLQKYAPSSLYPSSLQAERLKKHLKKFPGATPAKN
The data set can be described thus: EMSA; 50 mM Tris-HCl pH 7.5 (25 C), 100 mM KCl, 2 mM 2-mercaptoethanol, 0.1 mg/mL BSA, 0.05% NP-40; FA at 30 C; nucleosome EMSA with 5% glycerol at 4 C (+5 ng/uL salmon sperm DNA for H2A-Cy5 probes); PALI1 PIR EMSA with 5% glycerol, binding at 30 C; probe 5 nM. Conditions: protein: recombinant; tags: MBP removed by TEV; label: 3'-fluorescein; hairpin, 46 bp stem. Background: A gel shift assay detects complexes by their altered migration in electrophoresis.

Chain of PRC2 core (EZH2-EED-SUZ12-RBBP4) (Q15910 other isoform, or with tags, fused parts or gaps, chain 1 of 4): as the sequence (Q15910 other isoform, or with tags, fused parts or gaps, chain 1 of 4) above
Chain of PRC2 core (EZH2-EED-SUZ12-RBBP4) (O75530 whole entry, chain 2 of 4): as the sequence (O75530 whole entry, chain 2 of 4) above
Chain of PRC2 core (EZH2-EED-SUZ12-RBBP4) (Q15022 whole entry, chain 3 of 4): as the sequence (Q15022 whole entry, chain 3 of 4) above
Chain of PRC2 core (EZH2-EED-SUZ12-RBBP4) (Q09028 whole entry, chain 4 of 4): as the sequence (Q09028 whole entry, chain 4 of 4) above

Turning to UUAGGGUUAGGGUUAGGGUUAGGG (structured_RNA) [G4 24 RNA], the binding result (in data set [1]; with PRC2-PALI1 PIR (G4)) was “binds” each time.

B1: CpG46 (structured_DNA)
DNA: GGCGCCCTGCCCCGCCTCGCTCTGGCAGAGTGGGGAGCCAGCCGGCGCTAGCCGGCTGGCTCCCCACTCTGCCAGAGCGAGGCGGGGCAGGGCGCC
As for B1, the Kd (commonly the concentration at which binding is half-saturated) came out at 2300 ± 300 nM in the data set with PALI1 PIR and 155 ± 26 nM in the data set with PRC2-PALI1 PIR.

B2: CpG46 mt (structured_DNA)
DNA: AATATTTCATTTTATTCTATCTCAATGAGACAAAAGATTGATTAATGCTAATTAATCAATCTTTTGTCTCATTGAGATAGAATAAAATGAAATATT
Consider B2, for which the Kd in the data set with PRC2-PALI1 PIR worked out at 73.7 ± 10 nM.
